Data: patent US20210253725A1 (BIONTECH, published 2021)

T1: CD27 expressed on the cell surface (HT1080_CD27 cells) (human, UniProt P26842 20-260)
T1 sequence (looked up): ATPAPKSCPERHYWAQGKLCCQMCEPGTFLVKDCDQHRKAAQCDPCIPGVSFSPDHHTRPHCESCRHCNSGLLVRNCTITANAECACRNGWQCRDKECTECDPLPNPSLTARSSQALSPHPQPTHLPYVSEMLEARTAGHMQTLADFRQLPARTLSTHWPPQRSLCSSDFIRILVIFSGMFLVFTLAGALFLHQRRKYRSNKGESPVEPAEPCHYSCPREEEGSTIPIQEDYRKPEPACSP

T2: CD27 protein (His-tagged, Sino Biological Inc. 10039-H08B1) (human, UniProt P26842 20-192)
T2 construct: bought; coated onto ELISA plates; also called human CD27; recombinant protein; not shown: His tag
T2 sequence (looked up): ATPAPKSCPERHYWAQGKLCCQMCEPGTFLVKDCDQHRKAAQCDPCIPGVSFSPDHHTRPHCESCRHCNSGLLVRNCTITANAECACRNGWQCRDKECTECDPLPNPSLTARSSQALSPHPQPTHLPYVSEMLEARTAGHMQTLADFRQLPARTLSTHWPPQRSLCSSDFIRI


Tests used:
[1] = target: T1, CD27 expressed on the cell surface …; test: cell-based or functional assay
[2] = target: T2, CD27 protein (His-tagged, Sino …); test: ELISA on coated His-tagged CD27
[3] = target: T1, CD27 expressed on the cell surface …; test: cellular binding assay, HT1080_CD27 cells
Note: test concentration or dose not given here.

| Binder | IL-8, cross-linked by F(ab')2 fragment [abs. corr.] [1] | IL-8 [abs. corr.] [1] | ELISA [abs. corr.] [2] | Cellular binding assay [RFU] [3] |
| --- | --- | --- | --- | --- |
| P018.S.07.A.B04 (antibody, V domains shown, V regions on human Ig constant parts; also called AB27_116) VH: QSVEESGGRLVTPGTPLTLTCTVSGFSLSSYDMIWVRQAPGKGLEWIGIIYLTDTTYYANWTKGRFTISKTSTTVDLKISSPTTEDTATYFCARHLDTSSGGFYFNLWGQGTLVTVSS VL: AQVLTQTPSSVSAAVGGTVTINCQASQSVYNSKILAWYQQKPGRPPKLLIYDASTLASGVPSRFKGSGSGTQFTLTISGVQSDDAATYFCQGEFTCTSADCIAFGGGTEVVVK | 1.67 abs. corr. | 0.304 abs. corr. | 3.63 abs. corr. | 382 RFU |
| P018.S.06.A.B03 (antibody, V domains shown, V regions on human Ig constant parts; also called AB27_99) VH: QSVEESGGRLVTPGTPLTLTCTVSGFSLSSYDMIWVRQAPGKGLEWIGIIYLTDTTYYANWAKGRFTISKTSTTVDLKISSPTTEDTATYFCARHLDTSSGGFYFNLWGQGTLVTVSS VL: AQVLTQTPSSVSAAVGGTVTINCQASQSVYNSKILAWYQQKPGRPPKLLIYDASTLASGVPSRFKGSGSGTQFTLTISGVQSDDAATYFCQGEFTCTSADCIAFGGGTEVVVK | 1.22 abs. corr. | 0.566 abs. corr. | 3.59 abs. corr. | 424 RFU |
| P018.S.09.A.D02 (antibody, V domains shown, V regions on human Ig constant parts; also called AB27_150) VH: QSLEESGGRLVTPGTPLTLTCTASGFSLSKYDMGWFRQAPGKGLEWIGMIGASDRTYYASWVKGRFTISKTSTTVDLRITSPTTEDTATYFCAREYPDARGYYYNLWGPGTPVTVSS VL: ALVMTQTPASVEAAVGGTVTINCQASQSISDLLAWYQQKPGQPPKLLIYDASDLASGVPSRFSGSGSGTEFTLTISGVQSDDAATYYCQQGYSITNVDNVFGGGTEVVVK | 1.75 abs. corr. | 1.01 abs. corr. | 3.37 abs. corr. | 337 RFU |
| P018.S.01.A.D02 (antibody, V domains shown, V regions on human Ig constant parts; also called AB27_11) VH: QSLEESGGRLVTPGTPLTLTCTASGFSLSKYDMGWFRQAPGKGLEWIGMIGASDSTYYASWVKGRFTISKTSTTVDLRITSPTTEDTATYFCAREYPDARGYYYNLWGPGTPVTVSS VL: ALVMTQTPASVEAAVGGTVTINCQASQSISDLLAWYQQKPGQPPKPLIYDASDLASGVPSRFKGSGSGTQFTLTISGVQSDDAATYYCQQGYSITNVDNVFGGGTEVVVK | 1.67 abs. corr. | 0.675 abs. corr. | 3.26 abs. corr. | 323 RFU |
| P018.S.07.A.H04 (antibody, V domains shown, V regions on human Ig constant parts; also called AB27_132) VH: QSLEESGGRLVTPGTPLTLTCTVSGLSLSSYDMSWVRQAPGKGLEWIGYIWSGGSTDYASWAKGRFTISKTSTTVDLKIISPTTEDTATYFCARGYVEFDLWGPGTLVTVSS VL: DPVLTQTPPSVSAAVGGTVTINCQSSQSLYSNNYLSWYQQKAGQPPKVLIWPASSLASGVPSRFKGSASGTQFTLTISELQSDDAATYYCQGTFYDSGWLSAFGGGTEVVVK | 1.86 abs. corr. | 0.158 abs. corr. | 3.4 abs. corr. | 386 RFU |
| P018.S.03.A.D02 (antibody, V domains shown, V regions on human Ig constant parts; also called AB27_47) VH: QSVEESGGRLVTPGTPLTLTCTVSGLSLSSYDMSWVRQAPGKGLEWIGYIWSGGTTDYASWAKGRFTISKTSTTVDLKIISPTTEDTATYFCARGYVEFDLWGPGTLVTVSS VL: DPVLTQTPPSVSAAVGGTVTINCQSSQSLYSNNYLSWYQQKPGQPPKVLIWPASSLASGVPSRFKGSGSGTQFTLTISELQSDDAATYYCQGTFYDSGWLSTFGGGTEVVVK | 1.47 abs. corr. | 0.463 abs. corr. | 3.37 abs. corr. | 397 RFU |
| P018.S.08.A.D02 (antibody, V domains shown, V regions on human Ig constant parts; also called AB27_138) VH: QSVEESGGRLVTPGTPLTLTCTVSGFSLSHYHILWVRQAPGEGLKYIGITLNNGRIDYATWAKGRFTISKTSTTVDLEITSPTTEDTATYFCAKYFVSESYDLWGQGTLVTVSS VL: TAVLTQTPSPVSAAVGSTVTINCQASQSVYNDNWLSWYQQKPGQPPKLLIYGASTLASGVPSRFKGSGSGTQFTLTISDVQSGDAATYYCLGGYKDNSDNVFGGGTEVVVK | 1.67 abs. corr. | 0.534 abs. corr. | 3.37 abs. corr. | 407 RFU |
| P018.S.01.A.G04 (antibody, V domains shown, V regions on human Ig constant parts; also called AB27_23) VH: QEQLVESGGGLVQPEGSLTLTCTASGVSFSNNYYISWVRQAPGKGLEWIACVYTGDDDYTYYPSWAKGRFTISKTSSTTVTLQMTSLTAADTATYFCAREILYPADTDSFDLWGPGTLVTVSS VL: AFELTQTPSSVEAAVGGTVTIKCQASESISSRLAWYQQKPGQPPKLLIYRASTLASGVPSRFKGSGSGTDFTLTISDLESADAATYYCQAYVGISSGGYIFGGGTEVVVK | 1.15 abs. corr. | 0.273 abs. corr. | 3.77 abs. corr. | 388 RFU |
| P018.S.02.A.F05 (antibody, V domains shown, V regions on human Ig constant parts; also called AB27_35) VH: QEQLVESGGDLVKPEGSLTLTCTASGFSFSSSYYMSWVRQAPGKGLEWIACIDTVDNYTYYASWAKGRFTISKTSSTTVSLQMTSLTAADTATYFCARERIAYNTDYFNLWGPGTLVTVSS VL: AQVLTQTPSPVSAAVGGTVTISCQSSQSLYNYNNLAWYQQKPGQPPKLLIYSASNLASGVPSRFGGSGSGTQFTLTISDLQSDDAATYYCQGYYSGAVYTFGGGTEVVVK | 1.17 abs. corr. | 0.395 abs. corr. | 3.44 abs. corr. | 307 RFU |
| P018.S.02.A.B05 (antibody, V domains shown, V regions on human Ig constant parts; also called AB27_31) VH: QEQLVESGGGLVQPEGSLTLTCKASGFDFSSSYYMSWVRQAPGKGLEWIACIDTADGYTYYASWAKGRFTISKTSSTTVSLQMTSLTAADTATYFCARERIAYNTDYFNLWGPGTLVTVSS VL: AQVLTQTPSPVSAAVGGTVTISCQSSQSLYNYNNLAWYQQKPGQPPKLLIYSVSNLASGVPSRFGGSGSGTQFTLTISDLQSDDAATYYCQGYYSGAVYTFGGGTEVVVK | 1.76 abs. corr. | 0.201 abs. corr. | 3.48 abs. corr. | 374 RFU |
| P018.S.04.A.C02 (antibody, V domains shown, V regions on human Ig constant parts; also called AB27_69) VH: QEQLVESGGDLVKPEGSLTLTCTASGFSFSSSYYMSWVRQAPGKGLEWIACIDTVDNYTYYASWAKGRFTISKTSSTTVSLQMTSLTAADTATYFCARERIAYNTDYFNLWGPGTLVTVSS VL: AQVLTQTPSPVSAAVGGTVTISCQSSQSLYNYNNLAWYQQKPGQPPKLLIYSVSNLASGVPSRFGGGGSGTQFTLTISDLQSADAATYYCQGYYSGAVYTFGGGTEVVVK | 1.53 abs. corr. | 0.235 abs. corr. | 3.37 abs. corr. | 415 RFU |
| P018.S.04.A.B01 (antibody, V domains shown, V regions on human Ig constant parts; also called AB27_66) VH: QEQLVESGGDLVKPGGTLTLTCTASGFSFSSSYYMSWVRQAPGKGLEWIACIDTADAYTYYASWAKGRFTISKTSSTTVSLQMTSLTAADTATYFCARERIAYNTDYFNLWGPGTLVTVSS VL: AQVLTQTPSPVSAAVGGTVTISCQSSQSLYNYNNLAWYQQKPGQPPKLLIYSASNLASGVPSRFGGSGSGTQFTLTISDLQSDDAATYYCQGYYSGAVYTFGGGTEVVVK | 1.67 abs. corr. | 0.508 abs. corr. | 3.38 abs. corr. | 330 RFU |
| P018.S.05.A.D04 (antibody, V domains shown, V regions on human Ig constant parts; also called AB27_87) VH: QSLEESGGDLVKPGASLTLTCTASEFDFNNNAMCWVRQAPGKGLEWIACIYIGNGGTWYASWAKGRFTISKSSSTTVTLQVTSLTAADTATYFCARGENIAYFILWGPGTLVTVSS VL: DIVMTQTPASVSAAVGGTVTIKCQASQSINSWLSWYQQKPGQPPKLLIYKASTLASGVPSRFKGSGSGTEFTLTISDLESADAATYYCQGYYYYSSSNYASNAFGGGTEVVVK | 1.53 abs. corr. | 0.246 abs. corr. | 3.37 abs. corr. | 317 RFU |
| P018.S.02.A.H05 (antibody, V domains shown, V regions on human Ig constant parts; also called AB27_40) VH: QSLEESGGDLVKPGASLTLTCTASGIDFSSSSMCWVRQAPGKGLEWIACIDTGSSGRTDYASWAKGRFTLSKTSATTVTLQMTSLTAADTATYFCTRYGDYAGYGYDSFDPWGPGTLVTVSS VL: AQVLTQTPSSVSAAVGGTVTINCQASQNINNWCSWYQQKPGQPPKLLIAYASTLASGVSSRFKGSGSGTQFTLTISGVQSDDAATYYCQQTFDCTDVENVFGGGTEVVVK | 1.4 abs. corr. | 0.067 abs. corr. | 3.38 abs. corr. | 252 RFU |
